Data as given in publication PMC6365180 (Structure (London, England : 1993), 2018).
Substitutions are numbered along the chain they refer to. Numbers in names are those of the source. Values belong to the binder of their own block, whether it stands above or below them.

Target: TATA box-binding protein (TBP) (UniProt P20226 1-339)
Assay: SPR

Sequence of TATA box-binding protein (TBP) (P20226 whole entry): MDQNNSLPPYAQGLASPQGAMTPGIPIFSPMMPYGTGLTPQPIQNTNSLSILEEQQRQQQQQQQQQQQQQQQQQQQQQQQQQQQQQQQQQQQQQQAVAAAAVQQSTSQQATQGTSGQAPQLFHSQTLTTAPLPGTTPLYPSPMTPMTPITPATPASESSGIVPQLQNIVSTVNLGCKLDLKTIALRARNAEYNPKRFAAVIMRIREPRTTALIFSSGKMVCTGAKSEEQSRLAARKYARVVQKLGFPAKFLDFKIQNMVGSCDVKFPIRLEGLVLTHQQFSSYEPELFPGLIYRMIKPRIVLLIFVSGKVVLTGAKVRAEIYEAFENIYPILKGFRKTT

Kd: 53 ± 12 µM
B1: N-terminal transactivation domain (NTD) of human estrogen receptor alpha, wild type (SNA-M1-Y184) (domain or fragment)
chain: SNAMTMTLHTKASGMALLHQIQGNELEPLNRPQLKIPLERPLGEVYLDSSKPAVYNYPEGAAYEFNAAAAANAQVYGQTGLPYGPGSEAAAFGSNGLGGFPPLNSVSPSPLMLLHPPPQLSPFLQPHGQQVPYYLENEPSGYTVREAGPPAFYRPNSDNRRQGGRERLASTNDKGSMAMESAKETRY

Kd: 3.9 ± 0.4 µM
B2: N-terminal transactivation domain (NTD) of human estrogen receptor alpha, S118D mutant (domain or fragment)
chain: B1 chain with S121D
